Values quoted from earlier work in patent US9056141B2, “Thiol-ene click chemistry for drug conjugates” (priority 2012, dated 2015).

Conditions: patients receiving Adcetris treatment

## brentuximab vedotin [Adcetris]
  patients in clinical trials experiencing serious adverse events: 31%
Clinical trials
  patients discontinuing the treatment due to adverse events: 21%
